# Measurements as given in the RNAGym collection of RNA variant scans (doi:10.1021/acssynbio.7b00057).
# B1: Pistol ribozyme (parent)
# chain: GGGUCGUUGUUCCAUAAUCGCGUGGAUAUGGCACGCAAGUUUCUACCGGGCACCGUAAAUGUCCGACUGGAGCCGUUCGGGCGGCUAUAAACAGACCUCAGGCCCGAAGCGUGGCGGCACCUGCCGCCGGUGGUAAAAAAGAUCGGAAGAGCACACGUCU
# Variants of: B1
# Test: aptazyme ON/OFF ratio, guanine; higher = stronger switching; co-transcriptional cleavage with and without guanine
row,Variant,aptazyme ON/OFF ratio
1,U7A G9A C12G C13U,1.17
2,U7A G9A C12G C13G,1.24
3,U7A G9A U10G U11A C12G C13A,1.12
4,U7A G9A U10G U11A C12G C13U,1.17
5,U7A G9A U10G U11A C12G C13G,1.31
6,U7A G9A U11C C12U C13A,1.1
7,U7A G9A U11C C12U C13G,1.27
8,U7A G9A U11C C12U C13U,1.22
9,U7A G9A U10C U11G C12G C13U,1.14
10,U7A G9A U10C U11G C12G C13G,1.27
11,U7A G9A U10C U11G C12G C13A,1.17
12,U7A G9A U10G U11A C12U C13G,1.06
13,U7A G9A U10G U11A C12U C13U,1.17
14,U7A G9A U10G U11A C12U C13A,1.09
15,U7A G9A U10C C12G C13U,1.2
16,U7A G9A U10C C12G C13G,1.17
17,U7A G9A U10C C12G C13A,1.15
18,U7A G9A U10C U11C C12A,1.18
19,U7A G9A U10C U11C C12U,1.03
20,U7A G9A U10C U11C C12G,1.09
21,U7A G9C C12A C13G,1.04

row,Variant,aptazyme ON/OFF ratio
1,U7A G9C C12A C13U,1.1
2,U7A G9C C12A C13A,1.07
3,U7A G9A U10C U11A C12U C13A,1.2
4,U7A G9A U10C U11A C12U C13U,1.22
5,U7A G9A U10C U11A C12U C13G,1.23
6,U7A G9C U10A C12G C13G,1.14
7,U7A G9C U10A C12G C13A,1.13
8,U7A G9C U10A C12G C13U,1.17
9,U7A G9A U10G U11G C12A C13A,1.2
10,U7A G9A U10G U11G C12A C13G,1.29
11,U7A G9A U10G U11G C12A C13U,1.33
12,U7A G9C U10A U11C C12U C13U,1.12
13,U7A G9C U10A U11C C12U C13A,1.1
14,U7A G9C U10A U11C C12U C13G,1.13
15,U7A G9A U10A U11A C12U C13G,1.32
16,U7A G9A U10A U11A C12U C13A,1.19
17,U7A G9A U10A U11A C12U C13U,1.39
18,U7A G9C U10A U11C C12G C13U,1.17
19,U7A G9C U10A U11C C12G C13A,1.08
20,U7A G9C U10A U11C C12G C13G,1.12
21,U7A G9C U10A C12U C13G,1.11

row,Variant,aptazyme ON/OFF ratio
1,U7A G9C U10A C12U C13A,1.14
2,U7A G9C U10A C12U C13U,1.12
3,U7A G9C C12A,1.06
4,U7A G9C C12G,1.08
5,U7A G9C C12U,1.1
6,U7A G9A U10C U11A C12A C13A,1.2
7,U7A G9A U10C U11A C12A C13G,1.05
8,U7A G9A U10C U11A C12A C13U,1.19
9,U7A G9A U10G U11C C12G,1.08
10,U7A G9A U10G U11C C12U,1.08
11,U7A G9A U10G U11C C12A,1.21
12,U7A G9A U10G U11A C12A C13U,1.21
13,U7A G9A U10G U11A C12A C13G,1.15
14,U7A G9A U10G U11A C12A C13A,1.11
15,U7A G9A U11C C12A C13G,1.14
16,U7A G9A U11C C12A C13U,1.16
17,U7A G9A U11C C12A C13A,1.17
18,U7A G9A U10A U11C C12G C13U,1.2
19,U7A G9A U10A U11C C12G C13G,1.42
20,U7A G9A U10A U11C C12G C13A,1.08
21,U7A,3.28

row,Variant,aptazyme ON/OFF ratio
1,U7A G9A U10A U11G C12U C13U,1.42
2,U7A G9A U10A U11G C12U C13A,1.17
3,U7A G9A U10A U11G C12U C13G,1.15
4,U7A G9A U11G C12G,1.29
5,U7A G9A U11G C12A,1.18
6,U7A G9A U11G C12U,2.19
7,U7A G9A,1.83
8,U7A G9C,1.25
9,U7A G9A U11A C12U C13G,1.22
10,U7A G9A U11A C12U C13A,1.24
11,U7A G9A U11A C12U C13U,1.42
12,U7A G9A U10C U11G C12U,1.29
13,U7A G9A U10C U11G C12G,1.3
14,U7A G9A U10C U11G C12A,1.04
15,U7A G9A U10G C13G,1.17
16,U7A G9A U10G C13A,1.29
17,U7A G9A U10G C13U,1.28
18,U7A G9A U10A U11C C12A C13G,1.15
19,U7A G9A U10A U11C C12A C13U,1.1
20,U7A G9A U10A U11C C12A C13A,1.18
